Patent publication US20100260765A1 (AstraZeneca / MedImmune, published 2010)

B1: anti-KDR monoclonal antibody 30F6 (antibody, V domains shown)
VH: QVQLVESGGGVVQPGRSLRLSCAASGFTFSTYGMHWVRQAPGKGLEWVAVIWYDGSNKYYADSVKGRFTISRDNSKNTLYLQMNSLRAEDTAVYYCACSYWNDDYYYGMDVWGQGTTVTVSS
VL: DIQMTQSPSSLSASVGDRVIITCRASQNISSYLIWYQQKPGKAPNLLIHTTSSLQRGVPSRFSGSGSGTDFTLTISSLQPEDFATYYCQQSYSAPLTFGGGTKVEIK
notes: Fully human mAb from XenoMouse (IgG2 or IgG4 strain); hybridoma supernatant
B2: anti-KDR monoclonal antibody 21H6 (antibody, V domains shown)
VH: QVQLVESGGGLVKPGGSLRLSCAASGFTFSDYYMSWIRQAPGKGLEWVSYISNSGITIYYADSVKGRFTISRDNAKNSLYLQMNSLRAGDTAVYYCAREEWYSSRWYRNFDYWGQGTLVTVSS
VL: DIQMTQFSSSLSASVGDRVTITCRASQSISRYLNWYQQKPGKAPKLLIYAASSLQSGVPSRFNGSGSGTDFTLTISSLQPEDFATYYCQQSYSAPLTFGGGTKVEIK
notes: Fully human mAb from XenoMouse; hybridoma supernatant
B3: anti-KDR monoclonal antibody 21A1 (antibody, V domains shown)
VH: QVQLVESGGGLVKPGGSLRLSCAASGFTFSDYYMSWIRQAPGKGLEWVSYISNSGITIYYADSVKGRFTISRDNAKNSLYLQMNSLRAGDTAVYYCAREEWYSSRWYRNFDYWGQGTLVTVSS
VL: DIQMTQFSSSLSASVGDRVTITCRASQSISRYLNWYQQKPGKAPKLLIYAASSLQSGVPSRFNGSGSGTDFTLTISSLQPEDFATYYCQQSYSAPLTFGGGTKVEIK
notes: as for B1
B4: anti-KDR monoclonal antibody 24B3 (antibody, V domains shown)
VH: EVQLVESGGGLVKPGGSLRLSCAASGFTFSTYSMNWVRQAPGKGLEWVSFISGRSSYIYYADSVKGRFTISRDNAKNSLYLQMNSLRAEDTAVYYCSKDDWFEELWGQGTLVTVSS
VL: DIQMTQSPSSLSASVGDRVTITCRASQGIRSDLGWYQQKPGKAPKRLIYATSSLQSGVPSRFSGSGSGTEFTLTISSLQPEDFATYYCLQHNRYPWTFGQGTKVEIK
notes: as for B1
B5: anti-KDR monoclonal antibody 29F7 (antibody, V domains shown)
VH: QVQLVQSGAEVKKPGASVKVSCKASGYTFTSYDINWVRQATGQGLEWMGWMNPNSGKTGYAQKFQGRVTMTRSTSISTAYMELSSLRSEDTAVYYCARGGYSNLGWFDPWGQGTLVTVSS
VL: DIQMTQSPSSVFASVGDRVTITCRASQGISTWLAWYQQKPGKAPKFLIYAASSLQSGVPSRFSGSGSGTDFTLTISSLQPDDFATYYCQQANNFPFTFGPGTKVDIK
notes: as for B1
B6: anti-KDR monoclonal antibody 30H10 (antibody, V domains shown)
VH: EVQLLESGGGLVQPGGSLRLSCAASGFTFSNYAMSWVRQAPGKGLEWVSAISGSGGITYYADSVKGRFTISRDNSKNTLFLQMNSLRAEDTAVYYCAKASGDNWGQGTLVSVSS
VL: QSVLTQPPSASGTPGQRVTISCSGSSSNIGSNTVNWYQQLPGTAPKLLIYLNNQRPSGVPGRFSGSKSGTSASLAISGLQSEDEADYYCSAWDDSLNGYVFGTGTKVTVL
notes: as for B1
B7: anti-KDR monoclonal antibody 32C11 (antibody, V domains shown)
VH: EVQLLESGGTLVQPGGSLRLSCAASGFTFSNYAMSWVRQAPGKGLEWVSAISGRAGSTYYADSVKGRFTISRDNSKNTLFLQMNSLRAEDTAVYYCAKASGDDWGQGTLVTVSS
VL: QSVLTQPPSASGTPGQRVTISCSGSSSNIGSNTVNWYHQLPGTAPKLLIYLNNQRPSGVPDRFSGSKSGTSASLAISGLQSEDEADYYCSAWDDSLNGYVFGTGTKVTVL
notes: as for B1
B8: anti-KDR monoclonal antibody 27A3 (antibody, V domains shown)
VH: QLQLQESGPGLVKPSETLSLTCTVSGGSISSRSDYWGWIRQPPGKGLEWIGTIYYSGDTYYNPSLKSRVTISVDTSKNQFSLKLSSVTAADTAVYYCARQQLVLYYFDYWGQGTLVTVSS
VL: EIVLTQSPGTLSLSPGERATLSCRASQSVSSSYLAWYQQKPGQAPRLLIYATSNRATGIPDRFSGSGSGTDFTLTISRLEPEDFAVYYCQQHGSSPPLTFGGGTKVEIK
notes: as for B1
B9: anti-KDR monoclonal antibody 21H9 (antibody, V domains shown)
VH: QVPLVESGGGVVQPGRSLRLSCAASGFTFSSYGMHWVRQAPGKGLEWVAVIWYDGSNKYYADSVQGRFTISRDNSKNTLYLQMNSLRAEDTAVYYCARGVTMVRGLIIARYYYGLDVWGQGTTVTVSS
VL: DIVMTQTPLSSPVTFGQPASISCRSSQSLVHSDGNTYLSWLQQRPGQPPRLLIYKISNRFFGVPDRFSGSGAGTDFTLKISRVEAEDVGLYYCMQSTQFPLTFGGGTKVEIK
notes: as for B1

Experiments:
[1] = molecular target: T1, human KDR (VEGFR2) on cells (human, UniProt P35968 20-1356); assay: cell-based or functional assay
[2] = molecular target: T1, human KDR (VEGFR2) on cells; assay: cell-based or functional assay; remark: listed apart in the source
[3] = molecular target: T1, human KDR (VEGFR2) on cells; assay: cell-based or functional assay; remark: listed apart in the source
[4] = molecular target: T1, human KDR (VEGFR2) on cells; assay: FACS on HUVEC, hybridoma supernatant 1:50
Protocol: HUVECs were seeded at 15,000 cells/well and incubated with 100 μL of sample supernatant (at 1:50 dilution) for one hour at 4° C. The positive control was goat anti-KDR antibody (R&D Systems, Inc.), and negative controls included irrelevant hybridoma supernatants at the same dilution. The cells were then washed and incubated with Cy5-conjugated goat anti-human antibody at 5 μg/mL and 7-Amino-Actinomycin D (7AAD) at 5 μg/mL for 15 minutes at 4° C. Bound KDR was detected using FACS analysis.

[5] = molecular target: T2, mouse KDR (Flk-1)/Fc (Cat. #443-KD/CF, R&D Systems) (mouse, UniProt P35918 20-762); assay: ELISA, plate-coated Flk-1/Fc 500 ng/mL, hybridoma supernatant 1:5
T2 construct: Bought reagent; also called mouse VEGFR2; KDR mouse ortholog; Fc part of the bought chimera not given
Protocol: The cross-reactivity of antibodies in the hybridoma supernatant was tested against KDR mouse ortholog (mouse VEGFR2, or Flk-1) and human VEGFR1 (Flt-1). Cross-reactivity was measured using an ELISA based assay.
After washing and blocking the plates, the antibody-containing supernatants were added (at 1:5 dilution) into the coated wells and incubated for one hour at room temperature. The plates were then incubated with mouse anti-human IgG 2, 3 and 4 and subsequently with goat anti-mouse IgG Fc POD, to detect and measure bound antibodies.

[6] = molecular target: T3, soluble KDR (VEGF Receptor 2 D1-7, Cat. #676490, Calbiochem) (human, UniProt P35968 20-764); assay: ELISA, plate-coated soluble KDR 250 ng/mL, hybridoma supernatant 1:5
T3 construct: extracellular domain; Bought reagent; also called soluble human KDR; immobilized soluble KDR
Protocol: To screen by binding to immobilized soluble KDR, plates were coated with KDR (Calbiochem) at 250 ng/mL overnight at 4° C. After blocking and washing the coated plates, the candidate hybridoma supernatants (at 1:5 dilution) were transferred to the plates and incubated for one hour at room temperature. The plates were then washed and incubated with secondary antibody (at 1:4000 dilution) for one hour at room temperature.

b-KDRIg4-7-myc-his = molecular target: T4, b-KDRIg4-7-myc-his (UniProt P35968 328-764, prefix 'b-' not explained; captured on neutravidin-coated plates (presumably biotinylated, site not stated)); assay: ELISA, b-KDRIg4-7-myc-his 1 ug/mL on neutravidin, hybridoma supernatant 1:5
T4 construct: domain: Ig4-7; The text calls it 'a KDR antibody containing the Ig4-7 domain'; it is read as the KDR fragment; Purified on a nickel column; also called Ig4-7 domain of KDR; soluble KDR Ig4-7; not shown: myc-his tag of the pSecTag vector
Protocol: To screen by binding to the Ig4-7 domain of KDR, plates were first coated with neutravadin (Pierce) at 4 μg/mL and incubated overnight at 4° C. The plates were then blocked and subsequently incubated with b-KDRIg4-7-myc-his at 1 μg/mL for one hour at room temperature. Candidate hybridoma supernatants (at 1:5 dilution) were transferred to the plates and incubated for one hour at room temperature. The plates were then washed and incubated with goat anti-human IgG Fc POD (at 1:4000 dilution) for one hour at room temperature.

T3 sequence (P35968 20-764): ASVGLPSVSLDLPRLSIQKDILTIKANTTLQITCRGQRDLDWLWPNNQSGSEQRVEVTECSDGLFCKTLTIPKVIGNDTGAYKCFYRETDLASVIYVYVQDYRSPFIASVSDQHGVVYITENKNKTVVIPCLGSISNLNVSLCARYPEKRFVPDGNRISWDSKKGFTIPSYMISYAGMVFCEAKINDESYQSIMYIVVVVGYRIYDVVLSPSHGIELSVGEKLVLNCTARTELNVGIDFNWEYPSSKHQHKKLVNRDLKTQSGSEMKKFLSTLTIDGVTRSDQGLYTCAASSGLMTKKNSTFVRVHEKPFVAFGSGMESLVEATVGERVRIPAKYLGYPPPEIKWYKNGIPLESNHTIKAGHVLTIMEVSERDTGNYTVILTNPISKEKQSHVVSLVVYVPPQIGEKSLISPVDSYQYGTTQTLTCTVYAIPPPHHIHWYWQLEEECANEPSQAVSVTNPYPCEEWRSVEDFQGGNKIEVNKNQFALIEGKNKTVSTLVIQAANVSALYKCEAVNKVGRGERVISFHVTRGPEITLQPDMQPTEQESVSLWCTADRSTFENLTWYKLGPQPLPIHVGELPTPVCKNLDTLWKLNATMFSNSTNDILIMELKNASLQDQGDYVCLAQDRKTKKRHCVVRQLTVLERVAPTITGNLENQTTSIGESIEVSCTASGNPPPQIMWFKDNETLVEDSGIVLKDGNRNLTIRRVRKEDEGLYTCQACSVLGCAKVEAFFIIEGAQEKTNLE
T2 sequence (P35918 20-762): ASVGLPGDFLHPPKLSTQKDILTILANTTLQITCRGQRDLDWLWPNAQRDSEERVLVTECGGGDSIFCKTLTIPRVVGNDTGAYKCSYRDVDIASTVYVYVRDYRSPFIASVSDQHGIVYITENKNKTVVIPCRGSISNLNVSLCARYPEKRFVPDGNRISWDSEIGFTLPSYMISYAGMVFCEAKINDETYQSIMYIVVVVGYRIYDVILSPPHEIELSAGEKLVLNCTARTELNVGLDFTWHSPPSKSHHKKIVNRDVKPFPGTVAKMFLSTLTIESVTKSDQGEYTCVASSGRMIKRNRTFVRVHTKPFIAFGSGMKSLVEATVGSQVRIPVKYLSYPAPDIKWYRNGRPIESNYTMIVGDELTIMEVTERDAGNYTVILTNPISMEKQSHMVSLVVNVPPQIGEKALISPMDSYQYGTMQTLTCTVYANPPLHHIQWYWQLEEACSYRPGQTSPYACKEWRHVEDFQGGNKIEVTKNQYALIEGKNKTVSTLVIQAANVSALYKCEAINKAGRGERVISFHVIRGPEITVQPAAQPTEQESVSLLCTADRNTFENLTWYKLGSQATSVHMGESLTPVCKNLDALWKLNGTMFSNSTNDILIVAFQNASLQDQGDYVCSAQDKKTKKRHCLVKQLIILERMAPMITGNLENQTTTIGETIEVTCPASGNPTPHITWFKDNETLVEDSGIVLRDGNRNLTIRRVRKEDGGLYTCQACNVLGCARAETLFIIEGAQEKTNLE
T4 sequence (P35968 328-764): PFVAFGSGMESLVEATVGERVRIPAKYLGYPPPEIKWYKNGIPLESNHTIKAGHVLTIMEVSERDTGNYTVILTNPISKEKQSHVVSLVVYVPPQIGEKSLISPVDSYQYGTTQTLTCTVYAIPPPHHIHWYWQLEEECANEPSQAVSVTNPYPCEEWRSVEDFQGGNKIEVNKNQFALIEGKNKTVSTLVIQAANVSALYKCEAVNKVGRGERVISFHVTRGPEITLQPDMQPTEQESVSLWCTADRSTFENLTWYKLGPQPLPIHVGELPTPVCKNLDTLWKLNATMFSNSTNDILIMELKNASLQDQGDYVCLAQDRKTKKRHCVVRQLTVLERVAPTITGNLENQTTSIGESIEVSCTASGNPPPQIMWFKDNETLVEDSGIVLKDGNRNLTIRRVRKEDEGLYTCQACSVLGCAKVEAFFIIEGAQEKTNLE
T1 sequence (P35968 20-1356): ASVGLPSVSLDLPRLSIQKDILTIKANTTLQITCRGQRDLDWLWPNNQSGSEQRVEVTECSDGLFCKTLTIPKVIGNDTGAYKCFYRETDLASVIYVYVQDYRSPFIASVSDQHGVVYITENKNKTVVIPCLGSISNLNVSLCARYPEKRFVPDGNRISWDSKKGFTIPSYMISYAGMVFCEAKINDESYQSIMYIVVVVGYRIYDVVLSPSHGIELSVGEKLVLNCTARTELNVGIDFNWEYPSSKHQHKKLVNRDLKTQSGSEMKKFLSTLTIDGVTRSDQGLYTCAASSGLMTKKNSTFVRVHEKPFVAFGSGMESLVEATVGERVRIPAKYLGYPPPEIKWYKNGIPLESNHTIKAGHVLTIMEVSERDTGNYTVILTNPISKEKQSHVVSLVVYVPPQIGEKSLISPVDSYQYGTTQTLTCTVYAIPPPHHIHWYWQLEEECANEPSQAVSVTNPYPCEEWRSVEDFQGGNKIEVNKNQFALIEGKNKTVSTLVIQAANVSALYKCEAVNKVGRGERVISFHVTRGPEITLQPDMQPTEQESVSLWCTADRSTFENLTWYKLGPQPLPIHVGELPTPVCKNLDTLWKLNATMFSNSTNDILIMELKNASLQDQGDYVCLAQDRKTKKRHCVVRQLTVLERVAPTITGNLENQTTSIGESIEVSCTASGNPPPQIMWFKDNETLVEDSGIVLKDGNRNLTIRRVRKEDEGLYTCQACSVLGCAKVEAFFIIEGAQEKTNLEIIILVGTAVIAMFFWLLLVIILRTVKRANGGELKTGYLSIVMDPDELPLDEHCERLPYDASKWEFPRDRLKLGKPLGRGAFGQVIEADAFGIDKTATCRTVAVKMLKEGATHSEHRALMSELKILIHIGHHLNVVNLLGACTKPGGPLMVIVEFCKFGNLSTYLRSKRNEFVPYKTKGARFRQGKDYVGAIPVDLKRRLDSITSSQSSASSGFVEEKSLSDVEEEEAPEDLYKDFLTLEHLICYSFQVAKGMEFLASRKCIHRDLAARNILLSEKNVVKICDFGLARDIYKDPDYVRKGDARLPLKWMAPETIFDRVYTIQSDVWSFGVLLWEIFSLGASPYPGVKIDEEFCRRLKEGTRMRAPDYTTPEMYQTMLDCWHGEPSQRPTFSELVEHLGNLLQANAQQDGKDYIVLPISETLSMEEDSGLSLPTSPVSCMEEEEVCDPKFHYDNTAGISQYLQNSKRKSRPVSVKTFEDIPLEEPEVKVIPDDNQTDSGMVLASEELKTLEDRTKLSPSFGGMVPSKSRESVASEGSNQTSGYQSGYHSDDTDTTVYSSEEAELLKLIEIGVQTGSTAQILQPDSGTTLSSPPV

Binder	% Inhibition of VEGF165-mediated pTyr Activity, Average [1] [%]	% Inhibition of VEGF165-mediated pTyr Activity, n = 1 [1] [%]	% Inhibition of VEGF165-mediated pTyr Activity, n = 2 [1] [%]	% Inhibition of VEGF165-mediated pTyr Activity, n = 3 [1] [%]	% Inhibition of VEGF-E-mediated pTyr Activity [2] [%]	HUVEC survival (n = 1) 1:10 dilution of supernatant (RLU) [3] [RLU]	HUVEC survival (n = 2) 1:20 dilution of supernatant (RLU) [3] [RLU]	FACS Geometric Mean [4]	OD (450 nm) [5] [OD450]	KDR OD(450 nm) [6] [OD450]	b-KDRIg4-7 OD(450 nm) (b-KDRIg4-7-myc-his) [OD450]
B1	70	98	60	52	56	14800	1350	21	0.067	0.454	
B2	72	85	65	68	70	10200	247	18		0.62	0.935
B3	72	71	77	68	67	8870	2670	14		0.967	1.27
B4	51	69	51	33	40	14100	2460	26	0.094	6	0.065
B5	78	90	67	77	45	44100	24000	32	0.093	1.22	
B6	76	92	77	59	20	39500	21100	31		0.943	0.047
B7	72	84	75	57	17	44800	8570	26	0.083	0.924	
B8	62	60	68	59	60	17300	4560	25		3.75	1.82
B9	70	80	70	61	6	43800	10300	29	0.139	1.65	
